Among the data in article PMC5412023 are Kd values, retold here.

The target of test [1] is GST-TET2 CR (cysteine-rich domain of TET2, residues 1129-1322, fused to glutathione S-transferase), wild type (UniProt Q6N021). In words: MST; microscale thermophoresis, Monolith NT.115, analysed by PRISM; biotinylated histone H3 peptides with GST-TET2 CR wild type or W1291R. In general terms: Microscale thermophoresis detects binding through changes in fluorescence in a small temperature gradient.

A further test addresses GST-TET2 CR W1291R (UniProt Q6N021). Described as above.
Test [2] deals with GST-TET2 CR (cysteine-rich domain of TET2, residues 1129-1322, fused to glutathione S-transferase), wild type (UniProt Q6N021). In words: MST; microscale thermophoresis, Monolith NT.115, analysed by PRISM; mononucleosome binding to the wild-type CR domain.

As for “histone H3_(21-44) K36me1 peptide (from UniProt P68431 22-45)”, the Kd worked out at 688 nM in test [1] and 11000 nM with GST-TET2 CR W1291R.

In the case of “histone H3_(21-44) K36me2 peptide (from UniProt P68431 22-45)”, the Kd in test [1] came to 734 nM; in the test with GST-TET2 CR W1291R it was 27500 nM.

Consider “histone H3_(21-44) unmodified peptide (from UniProt P68431 22-45)”, for which the equilibrium dissociation constant (Kd) in test [1] came out at 21000 nM; with GST-TET2 CR W1291R, 946 nM.

In the case of mononucleosome (complex), in test [2], the equilibrium dissociation constant (Kd) worked out at 387 nM.

Broadly, the Kd is a measure of binding affinity in units of concentration. Read a high Kd as weaker binding.
